# B1: Round 2 CD28A12-5 (ligand)
# chain: ITPKSVTKRVKETVMLSCDYNTSTEELTSLRIYWRKDSKMXLAILPGKVQVWPEYKNRTITDMNDNLRIVILALRLSDSGTYTCVIQKPDLKGAYKLEHLTSVRLMIRADFPVPTINDLGNPSPNIRRLICSTSGGFPRPHLYWLENGEELNATNTTVSQDPGTELYMISSELDFNVTNNHSIVCLIKYGELLVSQIFPWSKPKQEPPIDQLPFWVIIPVSGALVLTAVVLYCLACRHVARWKRTRRNEETVGTERLSPIYLGSAQSSG
# modifications: not fully specified; X: residue not identified in the source; ends and bridges not checked; also: glycosylated membrane protein, sites not given here
# B2: Round 2 CD28A4-9 (ligand)
# chain: ITPKSVTKRVKETVMLSCDYNTSTEKLTSLRIYWQKDSKMVLAILPGKVQVWPEYKNRTITDMNDNPRIVILALRLSDSGTYTCVIQKPVLKGAYKLEHLTSVRLMIRADFPVPTINDLGNPSPNIRRLICSTSGGFPRPHLYWLENGEELNATNTTVSQDPETKLYMISSELDFNVTNNHSIVCLIKYGELSVSQIFPWSKPKQEPPIDQLPFWVIIPVSGALVLTAVVLYCPACRHVARWKRTRRNEETVGTERLSPIYLGSAQSRAEVPSLSX
# modifications: not fully specified; X: residue not identified in the source; ends and bridges not checked
# Molecular target: Soluble CD28-Ig (extracellular domain of human CD28 fused to the Fc portion of human IgG1) (human), P10747
# Assay: competitive FACS on transfected cells, biotin-sCD28-Ig with FITC-sCTLA-4-Ig; grade 0-2 of CD28/CTLA-4 ratio vs WT hB7-1
binder,measurement,value
B1,Binding Score,1
B2,Binding Score,1

# Source: patent US20100261660A1
